{"source": "patent US6034062", "key": {"[1]": {"target": "BMP-9 receptors expressed on HepG2 cells (ATCC HB8065)"}, "[2]": {"target": "BMP-9 receptors expressed on HepG2 cells (ATCC HB8065)", "assay": "125I-BMP-9 binding to HepG2 cells, high affinity sites"}, "[3]": {"target": "plasma membrane preparation from adult rat lung", "assay": "[125I]rhBMP-9 displacement profile on rat lung plasma membranes"}, "[4]": {"target": "plasma membrane preparation from adult rat kidney", "assay": "[125I]rhBMP-9 displacement profile on rat kidney plasma membranes"}, "[5]": {"target": "BMP-9 receptors expressed on HepG2 cells (ATCC HB8065)", "assay": "125I-BMP-9 binding to confluent HepG2 cells, displacement by unlabelled BMP-9, Scatchard analysis"}}}
{"binder": "recombinant human BMP-9 (CHO-derived, mature) (ligand, 125I-iodinated as tracer; unlabelled BMP-9 used as the displacing ligand) TRECSRSCPRTAPQRQVRAVTRRTRMAHVAAGSTLARRKRSAGAGSHCQKTSLRVNFEDIGWDSWIIAPKEYEAYECKGGCFFPLADDVTPTKHAIVQTLVHLKFPTKVG", "values": [{"measurement": "3H-thymidine incorporation in HepG2 cells", "setting": "[1]", "value": 5, "unit": "fold"}, {"measurement": "ED50 of 3H-thymidine incorporation in HepG2 cells", "setting": "[1]", "value": 10, "unit": "ng/mL"}, {"measurement": "Kd", "setting": "[2]", "value": 270, "unit": "pM"}, {"measurement": "Kd", "setting": "[3]", "value": 600, "unit": "pM"}, {"measurement": "Kd", "setting": "[4]", "value": 300, "unit": "pM"}, {"measurement": "Kd", "setting": "[5]", "value": 300, "unit": "pM"}]}
